Assay results taken from the Immune Epitope Database (IEDB).

Columns and labels:
HLA-B*27:05 [1] = assay: IEDB peptide-MHC binding, purified MHC/competitive/fluorescence; filed as Kd, often an IC50 or EC50 that approximates it; ≥ and ≤ were set here for values at or beyond the usual limits of such assays; conditions: source organism: Giardia lamblia ATCC 50803
HLA-B*14:02 = assay: as above; conditions: source organism: Giardia lamblia ATCC 50803
HLA-B*44:02 = assay: as above; conditions: source organism: Giardia lamblia ATCC 50803
HLA-A*30:01 = assay: as above
HLA-B*40:01 [2] = assay: as above; conditions: source organism: Giardia lamblia ATCC 50803
HLA-B*08:01 = assay: as above
HLA-B*53:01 = assay: as above; conditions: source organism: Giardia lamblia ATCC 50803
HLA-B*07:02 [3] = assay: as above; conditions: source organism: Giardia lamblia ATCC 50803
HLA-B*51:01 [4] = assay: as above; conditions: source organism: Giardia lamblia ATCC 50803
HLA-A*30:02 = assay: as above; conditions: source organism: Giardia lamblia ATCC 50803
HLA-B*58:01 [5] = assay: as above; conditions: source organism: Giardia lamblia ATCC 50803
HLA-A*66:01 = assay: as above; conditions: source organism: Giardia lamblia ATCC 50803
HLA-A*01:01 [6] = assay: as above
HLA-A*11:01 [7] = assay: as above; conditions: source organism: Giardia lamblia ATCC 50803
HLA-B*15:01 = assay: IEDB peptide-MHC binding, purified MHC/direct/fluorescence; filed as Kd, often an IC50 or EC50 that approximates it; ≥ and ≤ were set here for values at or beyond the usual limits of such assays
HLA-B*39:01 [8] = assay: as above; conditions: source organism: Giardia lamblia ATCC 50803
HLA-A*02:12 = assay: as above; conditions: source organism: Giardia lamblia ATCC 50803
HLA-A*26:01 = assay: as above
HLA-B*46:01 = assay: as above
HLA-A*03:01 = assay: as above
HLA-A*68:02 = assay: as above; conditions: source organism: Giardia lamblia ATCC 50803
HLA-B*18:01 = assay: as above
HLA-A*02:03 = assay: as above; conditions: source organism: Giardia lamblia ATCC 50803
HLA-B*27:03 = assay: as above; conditions: source organism: Giardia lamblia ATCC 50803
HLA-A*24:03 = assay: as above; conditions: source organism: Giardia lamblia ATCC 50803
HLA-A*23:01 = assay: as above; conditions: source organism: Giardia lamblia ATCC 50803
HLA-A*02:19 = assay: as above; conditions: source organism: Giardia lamblia ATCC 50803
HLA-A*29:02 = assay: as above; conditions: source organism: Giardia lamblia ATCC 50803
HLA-A*02:01 = assay: as above
HLA-B*39:01 [9] = assay: IEDB peptide-MHC binding, purified MHC/competitive/fluorescence; filed as Kd, often an IC50 or EC50 that approximates it; ≥ and ≤ were set here for values at or beyond the usual limits of such assays; conditions: source organism: Burkholderia mallei ATCC 23344
HLA-A*69:01 [10] = assay: as above; conditions: source organism: Burkholderia mallei ATCC 23344
HLA-B*27:05 [11] = assay: IEDB peptide-MHC binding, purified MHC/direct/fluorescence; filed as Kd, often an IC50 or EC50 that approximates it; ≥ and ≤ were set here for values at or beyond the usual limits of such assays
HLA-B*38:01 = assay: as above
HLA-B*40:01 [12] = assay: as above
HLA-B*15:09 = assay: as above; conditions: source organism: Burkholderia mallei ATCC 23344
HLA-B*57:01 = assay: as above
HLA-B*07:02 [13] = assay: as above; conditions: source organism: Burkholderia mallei
HLA-B*51:01 [14] = assay: as above
HLA-B*15:17 = assay: as above
HLA-B*48:01 = assay: as above
HLA-A*31:01 = assay: as above
HLA-B*58:01 [15] = assay: as above
HLA-A*11:01 [16] = assay: as above
HLA-A*69:01 [17] = assay: as above; conditions: source organism: Mycobacterium tuberculosis
HLA-A*01:01 [18] = assay: as above; conditions: source organism: Mycobacterium tuberculosis
[19] = source organism: Giardia lamblia ATCC 50803
[20] = source organism: Burkholderia mallei ATCC 23344
[21] = source organism: Burkholderia mallei
[22] = source organism: Mycobacterium tuberculosis variant bovis BCG str. Pasteur 1173P2
[23] = source organism: Mycobacterium tuberculosis
[24] = source organism: Mycobacterium tuberculosis str. Haarlem

MTFPLHFRS
Kd (HLA-B*27:05 [1]): ≥ 5 µM | Kd (HLA-B*14:02): ≥ 5 µM | Kd (HLA-B*44:02): ≥ 5 µM | Kd (HLA-A*30:01; [19]): ≥ 5 µM | Kd (HLA-B*40:01 [2]): ≥ 5 µM | Kd (HLA-B*08:01; [19]): ≥ 5 µM | Kd (HLA-B*53:01): ≥ 5 µM | Kd (HLA-B*07:02 [3]): ≥ 5 µM | Kd (HLA-B*51:01 [4]): ≥ 5 µM | Kd (HLA-A*30:02): ≥ 5 µM | Kd (HLA-B*58:01 [5]): ≥ 5 µM | Kd (HLA-A*66:01): ≥ 5 µM | Kd (HLA-A*01:01 [6]; [19]): ≥ 5 µM | Kd (HLA-A*11:01 [7]): 0.113 µM | Kd (HLA-B*15:01; [19]): ≥ 20 µM | Kd (HLA-B*39:01 [8]): ≥ 20 µM | Kd (HLA-A*02:12): ≥ 20 µM | Kd (HLA-A*26:01; [19]): ≥ 20 µM | Kd (HLA-B*46:01; [19]): ≥ 20 µM | Kd (HLA-A*03:01; [19]): ≥ 20 µM | Kd (HLA-A*68:02): ≤ 0.001 µM | Kd (HLA-B*18:01; [19]): ≥ 20 µM | Kd (HLA-A*02:03): ≥ 20 µM | Kd (HLA-B*27:03): ≥ 20 µM | Kd (HLA-A*24:03): ≥ 20 µM | Kd (HLA-A*23:01): ≥ 20 µM | Kd (HLA-A*02:19): ≥ 20 µM | Kd (HLA-A*29:02): 0.028 µM | Kd (HLA-A*02:01; [19]): ≥ 20 µM

EPFSRRHPL
Kd (HLA-B*39:01 [9]): 0.443 µM | Kd (HLA-A*69:01 [10]): 0.209 µM | Kd (HLA-B*08:01; [20]): 0.0583 µM | Kd (HLA-A*01:01 [6]; [20]): 3.27 µM | Kd (HLA-B*27:05 [11]; [21]): ≥ 20 µM | Kd (HLA-B*38:01; [20]): ≥ 20 µM | Kd (HLA-B*15:01; [21]): ≥ 20 µM | Kd (HLA-A*26:01; [20]): ≥ 20 µM | Kd (HLA-B*46:01; [21]): ≥ 20 µM | Kd (HLA-B*40:01 [12]; [21]): ≥ 20 µM | Kd (HLA-A*03:01; [21]): ≥ 20 µM | Kd (HLA-B*18:01; [21]): ≥ 20 µM | Kd (HLA-B*15:09): ≥ 20 µM | Kd (HLA-B*57:01; [21]): ≥ 20 µM | Kd (HLA-B*07:02 [13]): 0.01 µM | Kd (HLA-B*51:01 [14]; [21]): ≥ 20 µM | Kd (HLA-A*02:01; [21]): ≥ 20 µM | Kd (HLA-B*15:17; [21]): 0.367 µM | Kd (HLA-B*48:01; [21]): ≥ 20 µM | Kd (HLA-A*31:01; [21]): ≥ 20 µM | Kd (HLA-B*58:01 [15]; [21]): ≥ 20 µM | Kd (HLA-A*11:01 [16]; [21]): ≥ 20 µM

RPRLWRSVI
Kd (HLA-A*30:01; [22]): ≥ 20 µM | Kd (HLA-B*08:01; [22]): 0.324 µM | Kd (HLA-B*27:05 [11]; [23]): ≥ 20 µM | Kd (HLA-B*38:01; [24]): ≥ 20 µM | Kd (HLA-B*15:01; [23]): ≥ 20 µM | Kd (HLA-A*69:01 [17]): ≥ 20 µM | Kd (HLA-A*26:01; [24]): ≥ 20 µM | Kd (HLA-B*46:01; [23]): ≥ 20 µM | Kd (HLA-B*40:01 [12]; [23]): ≥ 20 µM | Kd (HLA-A*03:01; [23]): ≥ 20 µM | Kd (HLA-B*18:01; [23]): ≥ 20 µM | Kd (HLA-B*57:01; [23]): ≥ 20 µM | Kd (HLA-B*51:01 [14]; [23]): 0.964 µM | Kd (HLA-A*02:01; [23]): ≥ 20 µM | Kd (HLA-B*15:17; [23]): 2.58 µM | Kd (HLA-B*48:01; [23]): ≥ 20 µM | Kd (HLA-A*31:01; [23]): ≥ 20 µM | Kd (HLA-B*58:01 [15]; [23]): ≥ 20 µM | Kd (HLA-A*01:01 [18]): ≥ 20 µM | Kd (HLA-A*11:01 [16]; [23]): ≥ 20 µM
